{
  "source": "paper PMC5773591",
  "about": "“Structural basis of trans-synaptic interactions between PTPδ and SALMs for inducing synapse formation” (Nature Communications, 2018)",
  "molecules": {"B1": {"name": "mouse SALM2 LRR–Ig-His6 (residues 32–390) (domain or fragment, UniProt Q2WF71 32-390, looked up)", "chain": "QPCPGRCICQNVAPTLTMLCAKTGLLFVPPAIDRRVVELRLTDNFIAAVRRRDFANMTSLVHLTLSRNTIGQVAAGAFADLRALRALHLDSNRLAEVRGDQLRGLGNLRHLILGNNQIRKVESAAFDAFLSTVEDLDLSYNNLEALPWEAVGQMVNLNTLTLDHNLIDHIAEGTFVQLHKLVRLDMTSNRLHKLPPDGLFLRSQGGGPKPPTPLTVSFGGNPLHCNCELLWLRRLTREDDLETCATPEHLTDRYFWSIPEEEFLCEPPLITRQAGGRALVVEGQAVSLRCRAVGDPEPVVHWVAPDGRLLGNSSRTRVRGDGTLDVTITTLRDSGTFTCIASNAAGEATAPVEVCVVPL", "notes": "mouse SALM2 (synaptic adhesion-like molecule 2, Lrfn family), LRR–Ig, residues 32–390; Homodimer by SEC-MALS; source: Expi293F, transiently expressed, secreted, purified (Ni-NTA, Superdex200 SEC); not shown: His6, C-terminal, kept"}, "B2": {"name": "human SALM5 LRR–Ig-His6 (residues 18–378) (domain or fragment, UniProt Q96NI6 18-378, looked up)", "chain": "QICPKRCVCQILSPNLATLCAKKGLLFVPPNIDRRTVELRLADNFVTNIKRKDFANMTSLVDLTLSRNTISFITPHAFADLRNLRALHLNSNRLTKITNDMFSGLSNLHHLILNNNQLTLISSTAFDDVFALEELDLSYNNLETIPWDAVEKMVSLHTLSLDHNMIDNIPKGTFSHLHKMTRLDVTSNKLQKLPPDPLFQRAQVLATSGIISPSTFALSFGGNPLHCNCELLWLRRLSREDDLETCASPPLLTGRYFWSIPEEEFLCEPPLITRHTHEMRVLEGQRATLRCKARGDPEPAIHWISPEGKLISNATRSLVYDNGTLDILITTVKDTGAFTCIASNPAGEATQIVDLHIIKLP", "notes": "human SALM5 (synaptic adhesion-like molecule 5, Lrfn family), LRR–Ig, residues 18–378; Homodimer by SEC-MALS; The synaptogenic assay used another construct (entire ECD fused to Fc); also called SALM5 WT; apo-SALM5; source: Expi293F, transiently expressed, secreted, purified (Ni-NTA, Superdex200 SEC); not shown: His6, C-terminal, kept"}, "B3": {"name": "mouse PTPδ Ig1–Fn1 (A9B+)-His6 Q209A (domain or fragment)", "chain": "ETPPRFTRTPVDQTGVSGGVASFICQATGDPRPKIVWNKKGKKVSNQRFEVIEFDDGSGSVLRIQPLRTPRDEAIYECVASNNVGEISVSTRLTVLREDQIPRGFPTIDMGPQLKVVERTRTATMLCAASGNPDPEITWFKDFLPVDTSNNNGRIKQLRSESIGGTPIRGALQIEQSEESDAGKYECVATNSAGTRYSAPANLYVRELREVRRVPPRFSIPPTNHEIMPGGSVNITCVAVGSPMPYVKWMLGAEDLTPEDDMPIGRNVLELNDVRQSANYTCVAMSTLGVIEAIAQITVKALPKPPGTPVVTESTATSITLTWDSGNPEPVSYYIIQHKPKNSEEPYKEIDGIATTRYSVAGLSPYSDYEFRVVAVNNIGRGPASEPVLTQ"}, "B4": {"name": "mouse PTPδ Ig1–Fn1 (A9B+)-His6 R233A (domain or fragment)", "chain": "B3 chain with A182Q, R206A"}},
  "key": {"[1]": {"biological_target": "human SALM5 LRR–Ig-His6 (residues 18–378) (human) (UniProt Q96NI6)", "assay": "SPR; Biacore T200, 25 °C, 10 mM Hepes-Na (pH 7.5), 200 mM NaCl, 0.05% Tween20; SALM5 proteins immobilised on a CM5 chip by amino coupling; PTPδ proteins injected as analytes (0.1–260 μM)"}, "IL1RAPL1 (Mus musculus)": {"biological_target": "IL1RAPL1 (Mus musculus) (UniProt P59823)", "sequence (P59823 25-357)": "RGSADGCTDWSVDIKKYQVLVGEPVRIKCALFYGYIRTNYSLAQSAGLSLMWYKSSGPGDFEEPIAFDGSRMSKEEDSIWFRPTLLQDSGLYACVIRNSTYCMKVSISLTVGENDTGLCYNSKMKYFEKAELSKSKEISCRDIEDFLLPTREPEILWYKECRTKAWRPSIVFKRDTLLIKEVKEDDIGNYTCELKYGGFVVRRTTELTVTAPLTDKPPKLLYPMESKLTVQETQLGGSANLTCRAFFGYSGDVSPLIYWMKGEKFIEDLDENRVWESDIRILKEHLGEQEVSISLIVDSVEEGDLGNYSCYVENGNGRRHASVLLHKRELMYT", "settings": "cited from earlier work"}, "[2]": {"biological_target": "human SALM5 LRR–Ig-His6 I358A (human) (UniProt Q96NI6)", "assay": "SPR; Biacore T200, 25 °C, 10 mM Hepes-Na (pH 7.5), 200 mM NaCl, 0.05% Tween20; SALM5 proteins immobilised on a CM5 chip by amino coupling; PTPδ proteins injected as analytes (0.1–260 μM)"}, "[3]": {"biological_target": "human SALM5 LRR–Ig-His6 I321A (human) (UniProt Q96NI6)", "assay": "SPR; Biacore T200, 25 °C, 10 mM Hepes-Na (pH 7.5), 200 mM NaCl, 0.05% Tween20; SALM5 proteins immobilised on a CM5 chip by amino coupling; PTPδ proteins injected as analytes (0.1–260 μM)"}, "[4]": {"biological_target": "human SALM5 LRR–Ig-His6 R253A (human) (UniProt Q96NI6)", "assay": "SPR; Biacore T200, 25 °C, 10 mM Hepes-Na (pH 7.5), 200 mM NaCl, 0.05% Tween20; SALM5 proteins immobilised on a CM5 chip by amino coupling; PTPδ proteins injected as analytes (0.1–260 μM)"}, "[5]": {"biological_target": "human SALM5 LRR–Ig-His6 L249A (human) (UniProt Q96NI6)", "assay": "SPR; Biacore T200, 25 °C, 10 mM Hepes-Na (pH 7.5), 200 mM NaCl, 0.05% Tween20; SALM5 proteins immobilised on a CM5 chip by amino coupling; PTPδ proteins injected as analytes (0.1–260 μM)"}, "[6]": {"biological_target": "human SALM5 LRR–Ig-His6 L288A (human) (UniProt Q96NI6)", "assay": "SPR; Biacore T200, 25 °C, 10 mM Hepes-Na (pH 7.5), 200 mM NaCl, 0.05% Tween20; SALM5 proteins immobilised on a CM5 chip by amino coupling; PTPδ proteins injected as analytes (0.1–260 μM)"}, "[7]": {"biological_target": "human SALM5 LRR–Ig-His6 Q134N (human) (UniProt Q96NI6)", "assay": "SPR; Biacore T200, 25 °C, 10 mM Hepes-Na (pH 7.5), 200 mM NaCl, 0.05% Tween20; SALM5 proteins immobilised on a CM5 chip by amino coupling; PTPδ proteins injected as analytes (0.1–260 μM)"}, "[8]": {"biological_target": "the molecule itself", "assay": "SEC-MALS; SALM LRR–Ig proteins at 0.5 g/L on ENrich SEC 650 in 20 mM Tris-HCl (pH 7.4), 250 mM NaCl; dimer of monomers"}, "[9]": {"biological_target": "mouse PTPδ Ig1–Fn1 (A9B–) (mouse, UniProt Q64487 28-418, B– (meB insert 234ELRE237 absent))", "assay": "SPR; Biacore T200, 25 °C, 10 mM Hepes-Na (pH 7.5), 200 mM NaCl, 0.05% Tween20; SALM5 proteins immobilised on a CM5 chip by amino coupling; PTPδ proteins injected as analytes (0.1–260 μM)", "settings": "both partners purified"}, "[10]": {"biological_target": "B2", "assay": "SPR; Biacore T200, 25 °C, 10 mM Hepes-Na (pH 7.5), 200 mM NaCl, 0.05% Tween20; SALM5 proteins immobilised on a CM5 chip by amino coupling; PTPδ proteins injected as analytes (0.1–260 μM)", "settings": "both partners purified"}},
  "note": "Where a chain is given by its changes, count along the chain named. In names and notes the source's numbering stands.",
  "data": [
    {"molecule": "mouse PTPδ Ig1–Fn1 (A9B+)-His6 M312A (domain or fragment)", "values": [
      {"measurement": "Kd", "setting": "[1]", "value": 37.3, "unit": "µM"}
    ]},
    {"molecule": "mouse PTPδ Ig1–Fn1 (A9B+)-His6 V143A (domain or fragment)", "values": [
      {"measurement": "Kd", "setting": "[1]", "value": 150, "unit": "µM"}
    ]},
    {"molecule": "mouse PTPδ Ig1–Fn1 (A–B+) (from UniProt Q64487 28-418) (domain or fragment)", "values": [
      {"measurement": "Kd", "setting": "[1]", "value": 13.5, "unit": "µM"}
    ]},
    {"molecule": "PTPδ (from UniProt Q64487)", "values": [
      {"measurement": "Kd", "setting": "IL1RAPL1 (Mus musculus)", "value": 0.15, "unit": "µM"}
    ]},
    {"molecule": "mouse PTPδ Ig1–Fn1 (A9B+)-His6 L153A (domain or fragment)", "values": [
      {"measurement": "Kd", "setting": "[1]", "value": 25, "unit": "µM"}
    ]},
    {"molecule": "mouse PTPδ Ig1–Fn1 (A9B+)-His6 (domain or fragment)", "values": [
      {"measurement": "Kd", "setting": "[2]", "value": 31.4, "unit": "µM"},
      {"measurement": "Kd", "setting": "[3]", "value": 21.9, "unit": "µM"},
      {"measurement": "Kd", "setting": "[4]", "value": 95.2, "unit": "µM"},
      {"measurement": "Kd", "setting": "[5]", "value": 169, "unit": "µM"},
      {"measurement": "Kd", "setting": "[1]", "value": 14.4, "unit": "µM"},
      {"measurement": "Kd", "setting": "[6]", "value": 129, "unit": "µM"},
      {"measurement": "Kd", "setting": "[7]", "value": 9, "unit": "µM"}
    ]},
    {"molecule": "mouse PTPδ Ig1–Fn1 (A9B+)-His6 Y231A (domain or fragment)", "values": [
      {"measurement": "Kd", "setting": "[1]", "value": 70.9, "unit": "µM"}
    ]},
    {"molecule": "mouse PTPδ Ig1–Fn1 (A9B+)-His6 M137A (domain or fragment)", "values": [
      {"measurement": "Kd", "setting": "[1]", "value": 39.9, "unit": "µM"}
    ]},
    {"molecule": "mouse PTPδ Ig1–Fn1 (A9B+)-His6 Y273A (domain or fragment)", "values": [
      {"measurement": "Kd", "setting": "[1]", "value": 77.5, "unit": "µM"}
    ]},
    {"molecule": "B1", "values": [
      {"measurement": "stoichiometry N", "setting": "[8]", "value": 2}
    ]},
    {"molecule": "B2", "values": [
      {"measurement": "stoichiometry N", "setting": "[8]", "value": 2},
      {"measurement": "Kd", "setting": "[9]", "value": "106 ± 17", "unit": "µM"}
    ]},
    {"molecule": "B3", "values": [
      {"measurement": "Kd", "setting": "[10]", "value": "21.9 ± 0.23", "unit": "µM"}
    ]},
    {"molecule": "B4", "values": [
      {"measurement": "Kd", "setting": "[10]", "value": "24.8 ± 1.2", "unit": "µM"}
    ]}
  ]
}
